Source: patent publication US20240307370A1, “SIGMA RECEPTOR LIGANDS FOR TREATING SARS-COV-2 INFECTION” (University of Florida Research Foundation, Incorporated, priority 2021, published 2024)

Tests used:
SARS-CoV-2 [1] = format: cell-based; conditions: 400 μg/ml, 48 hours after infection, vs DMSO alone
SARS-CoV-2 [2] = format: cell-based; conditions: 400 μg/ml, H23-hACE2, MOI 0.01, 48 hpi

B1: lactoferrin: host-iron sequestration protein; lactoferrin from human milk, MilliporeSigma (protein, UniProt P02788 20-710, looked up)
Lactotransferrin: GRRRSVQWCAVSQPEATKCFQWQRNMRKVRGPPVSCIKRDSPIQCIQAIAENRADAVTLDGGFIYEAGLAPYKLRPVAAEVYGTERQPRTHYYAVAVVKKGGSFQLNELQGLKSCHTGLRRTAGWNVPIGTLRPFLNWTGPPEPIEAAVARFFSASCVPGADKGQFPNLCRLCAGTGENKCAFSSQEPYFSYSGAFKCLRDGAGDVAFIRESTVFEDLSDEAERDEYELLCPDNTRKPVDKFKDCHLARVPSHAVVARSVNGKEDAIWNLLRQAQEKFGKDKSPKFQLFGSPSGQKDLLFKDSAIGFSRVPPRIDSGLYLGSGYFTAIQNLRKSEEEVAARRARVVWCAVGEQELRKCNQWSGLSEGSVTCSSASTTEDCIALVLKGEADAMSLDGGYVYTAGKCGLVPVLAENYKSQQSSDPDPNCVDRPVEGYLAVAVVRRSDTSLTWNSVKGKKSCHTAVDRTAGWNIPMGLLFNQTGSCKFDEYFSQSCAPGSDPRSNLCALCIGDEQGENKCVPNSNERYYGYTGAFRCLAENAGDVAFVKDVTVLQNTDGNNNEAWAKDLKLADFALLCLDGKRKPVTEARSCHLAMAPNHAVVSRMDKVERLKQVLLHQQAKFGRNGSDCPDKFCLFQSETKNLLFNDNTECLARLHGKTTYEKYLGPQYVAGITNLKKCSTSPLLEACEFLRK
With B1 the “decrease of N-protein RNA copies (qPCR)” value (SARS-CoV-2 [1]) was 28.0% and the “effect on SARS-CoV-2 concentration (TCID50), words” value (SARS-CoV-2 [2]) was “ineffective”.
